Laboratory results: the supplement of paper PMC9112550, “Optimization of the antimicrobial peptide Bac7 by deep mutational scanning” (BMC Biology, 2022)

tested on: Escherichia coli TOP10; test: shrunken log2 fold change of peptide-encoding DNA abundance (4.5 h post-induction vs induction); higher = less antimicrobial activity (less host growth inhibition); conditions: time post-induction: 4.5 h; library: site-saturation at positions 5, 18, 19, 20
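Note: peptides expressed intracellularly from a pBAD plasmid library in pooled LB shake-flask culture, induced with 0.3% L-arabinose, DNA abundance read by NGS, three biological replicates, DESeq2 with apeglm shrinkage.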

| Sequence | shrunken log2 fold change |
| --- | --- |
| RRIRLRPPRLPRPRPRPIRAPRP | 0.301 |
| RRIRLRPPRLPRPRPRPIRFPRP | -0.185 |
| RRIRLRPPRLPRPRPRPISQPRP | -0.135 |
| RRIRLRPPRLPRPRPRPITFPRP | 0.0415 |
| RRIRLRPPRLPRPRPRPITKPRP | 0.00247 |
| RRIRLRPPRLPRPRPRPIYWPRP | -0.0187 |
| RRIRLRPPRLPRPRPRPKAIPRP | 0.0195 |
| RRIRLRPPRLPRPRPRPKASPRP | -0.231 |
| RRIRLRPPRLPRPRPRPKDEPRP | 0.114 |
| RRIRLRPPRLPRPRPRPKEKPRP | -0.0145 |
| RRIRLRPPRLPRPRPRPKGFPRP | -0.109 |
| RRIRLRPPRLPRPRPRPKHHPRP | -0.296 |
| RRIRLRPPRLPRPRPRPKHLPRP | -0.364 |
| RRIRLRPPRLPRPRPRPKPGPRP | 0.396 |
| RRIRLRPPRLPRPRPRPKPPPRP | 0.586 |
| RRIRLRPPRLPRPRPRPKRFPRP | 0.104 |
| RRIRLRPPRLPRPRPRPKRLPRP | -0.0581 |
| RRIRLRPPRLPRPRPRPKSQPRP | 0.00795 |
| RRIRLRPPRLPRPRPRPKSRPRP | -0.176 |
| RRIRLRPPRLPRPRPRPKWCPRP | 0.0847 |
| RRIRLRPPRLPRPRPRPKWLPRP | 0.139 |
| RRIRLRPPRLPRPRPRPKYCPRP | 0.0654 |
| RRIRLRPPRLPRPRPRPKYHPRP | -0.472 |
| RRIRLRPPRLPRPRPRPLAEPRP | 0.289 |
| RRIRLRPPRLPRPRPRPLAFPRP | -0.092 |

| Sequence | shrunken log2 fold change |
| --- | --- |
| RRIRLRPPRLPRPRPRPLAWPRP | 0.32 |
| RRIRLRPPRLPRPRPRPLESPRP | -0.212 |
| RRIRLRPPRLPRPRPRPLGPPRP | 0.332 |
| RRIRLRPPRLPRPRPRPLHVPRP | -0.173 |
| RRIRLRPPRLPRPRPRPLITPRP | -0.238 |
| RRIRLRPPRLPRPRPRPLKEPRP | 0.00325 |
| RRIRLRPPRLPRPRPRPLKPPRP | 0.171 |
| RRIRLRPPRLPRPRPRPLKVPRP | -0.0503 |
| RRIRLRPPRLPRPRPRPLMIPRP | -0.288 |
| RRIRLRPPRLPRPRPRPLMMPRP | -0.164 |
| RRIRLRPPRLPRPRPRPLNLPRP | -0.381 |
| RRIRLRPPRLPRPRPRPLNYPRP | -0.501 |
| RRIRLRPPRLPRPRPRPLRIPRP | -0.031 |
| RRIRLRPPRLPRPRPRPLSDPRP | 0.0376 |
| RRIRLRPPRLPRPRPRPLTEPRP | 0.098 |
| RRIRLRPPRLPRPRPRPLTQPRP | 0.343 |
| RRIRLRPPRLPRPRPRPLVAPRP | 0.343 |
| RRIRLRPPRLPRPRPRPLVDPRP | -0.0956 |
| RRIRLRPPRLPRPRPRPLVPPRP | -0.258 |
| RRIRLRPPRLPRPRPRPLWAPRP | 0.129 |
| RRIRLRPPRLPRPRPRPMAWPRP | -0.0215 |
| RRIRLRPPRLPRPRPRPMCAPRP | 0.0321 |
| RRIRLRPPRLPRPRPRPMCSPRP | 0.382 |
| RRIRLRPPRLPRPRPRPMFAPRP | 0.082 |
| RRIRLRPPRLPRPRPRPMHQPRP | 0.136 |

| Sequence | shrunken log2 fold change |
| --- | --- |
| RRIRLRPPRLPRPRPRPMLNPRP | -0.423 |
| RRIRLRPPRLPRPRPRPMLYPRP | -0.232 |
| RRIRLRPPRLPRPRPRPMMIPRP | -0.203 |
| RRIRLRPPRLPRPRPRPMQNPRP | 0.141 |
| RRIRLRPPRLPRPRPRPMSYPRP | -0.25 |
| RRIRLRPPRLPRPRPRPMVAPRP | -0.147 |
| RRIRLRPPRLPRPRPRPMVKPRP | -0.147 |
| RRIRLRPPRLPRPRPRPMYHPRP | -0.493 |
| RRIRLRPPRLPRPRPRPMYSPRP | -0.364 |
| RRIRLRPPRLPRPRPRPNDFPRP | -0.0142 |
| RRIRLRPPRLPRPRPRPNDWPRP | -0.261 |
| RRIRLRPPRLPRPRPRPNELPRP | 0.0122 |
| RRIRLRPPRLPRPRPRPNFEPRP | 0.0189 |
| RRIRLRPPRLPRPRPRPNIGPRP | -0.00419 |
| RRIRLRPPRLPRPRPRPNKRPRP | -0.121 |
| RRIRLRPPRLPRPRPRPNLHPRP | -0.347 |
| RRIRLRPPRLPRPRPRPNLNPRP | -0.716 |
| RRIRLRPPRLPRPRPRPNLQPRP | -0.0904 |
| RRIRLRPPRLPRPRPRPNLTPRP | -0.299 |
| RRIRLRPPRLPRPRPRPNMFPRP | -0.225 |
| RRIRLRPPRLPRPRPRPNNFPRP | -0.184 |
| RRIRLRPPRLPRPRPRPNPEPRP | 0.0435 |
| RRIRLRPPRLPRPRPRPNPPPRP | 0.0837 |
| RRIRLRPPRLPRPRPRPNQTPRP | -0.0464 |
| RRIRLRPPRLPRPRPRPNRCPRP | -0.231 |

| Sequence | shrunken log2 fold change |
| --- | --- |
| RRIRLRPPRLPRPRPRPNTQPRP | -0.0732 |
| RRIRLRPPRLPRPRPRPNVDPRP | -0.492 |
| RRIRLRPPRLPRPRPRPNWLPRP | 0.0723 |
| RRIRLRPPRLPRPRPRPNWPPRP | 0.379 |
| RRIRLRPPRLPRPRPRPNWWPRP | 0.117 |
| RRIRLRPPRLPRPRPRPPCMPRP | -0.0839 |
| RRIRLRPPRLPRPRPRPPCQPRP | 0.062 |
| RRIRLRPPRLPRPRPRPPDIPRP | -0.0356 |
| RRIRLRPPRLPRPRPRPPFRPRP | 0.526 |
| RRIRLRPPRLPRPRPRPPGMPRP | 0.197 |
| RRIRLRPPRLPRPRPRPPGWPRP | 0.218 |
| RRIRLRPPRLPRPRPRPPHIPRP | 0.0882 |
| RRIRLRPPRLPRPRPRPPHPPRP | 0.404 |
| RRIRLRPPRLPRPRPRPPIVPRP | -0.531 |
| RRIRLRPPRLPRPRPRPPIYPRP | -0.15 |
| RRIRLRPPRLPRPRPRPPNMPRP | -0.076 |
| RRIRLRPPRLPRPRPRPPPTPRP | 1.48 |
| RRIRLRPPRLPRPRPRPPPWPRP | 0.892 |
| RRIRLRPPRLPRPRPRPPQNPRP | 1.26 |
| RRIRLRPPRLPRPRPRPPQQPRP | 0.313 |
| RRIRLRPPRLPRPRPRPPRWPRP | 0.408 |
| RRIRLRPPRLPRPRPRPPSEPRP | 0.321 |
| RRIRLRPPRLPRPRPRPPTFPRP | 0.00353 |
| RRIRLRPPRLPRPRPRPPTRPRP | 0.677 |
| RRIRLRPPRLPRPRPRPPYFPRP | -0.247 |

| Sequence | shrunken log2 fold change |
| --- | --- |
| RRIRLRPPRLPRPRPRPQAHPRP | -0.217 |
| RRIRLRPPRLPRPRPRPQCRPRP | 0.0156 |
| RRIRLRPPRLPRPRPRPQDHPRP | -0.203 |
| RRIRLRPPRLPRPRPRPQDQPRP | 0.14 |
| RRIRLRPPRLPRPRPRPQEAPRP | 0.0514 |
| RRIRLRPPRLPRPRPRPQEEPRP | -0.0207 |
| RRIRLRPPRLPRPRPRPQEGPRP | 0.0327 |
| RRIRLRPPRLPRPRPRPQFQPRP | -0.0476 |
| RRIRLRPPRLPRPRPRPQKRPRP | 0.0648 |
| RRIRLRPPRLPRPRPRPQMWPRP | 0.0549 |
| RRIRLRPPRLPRPRPRPQNLPRP | -0.149 |
| RRIRLRPPRLPRPRPRPQNQPRP | -0.159 |
| RRIRLRPPRLPRPRPRPQNWPRP | 0.1 |
| RRIRLRPPRLPRPRPRPQPWPRP | 0.319 |
| RRIRLRPPRLPRPRPRPQRLPRP | 0.239 |
| RRIRLRPPRLPRPRPRPQTRPRP | 0.08 |
| RRIRLRPPRLPRPRPRPQVSPRP | 0.0548 |
| RRIRLRPPRLPRPRPRPQVTPRP | 0.0952 |
| RRIRLRPPRLPRPRPRPQWCPRP | -0.282 |
| RRIRLRPPRLPRPRPRPQYCPRP | 0.273 |
| RRIRLRPPRLPRPRPRPRDAPRP | 0.469 |
| RRIRLRPPRLPRPRPRPRDVPRP | 0.176 |
| RRIRLRPPRLPRPRPRPRENPRP | 0.345 |
| RRIRLRPPRLPRPRPRPRFEPRP | 0.529 |
| RRIRLRPPRLPRPRPRPRGIPRP | -0.0811 |

| Sequence | shrunken log2 fold change |
| --- | --- |
| RRIRLRPPRLPRPRPRPRGKPRP | 0.0746 |
| RRIRLRPPRLPRPRPRPRISPRP | 0.0807 |
| RRIRLRPPRLPRPRPRPRLIPRP | 0.123 |
| RRIRLRPPRLPRPRPRPRLSPRP | 0.346 |
| RRIRLRPPRLPRPRPRPRMMPRP | 0.189 |
| RRIRLRPPRLPRPRPRPRMNPRP | 0.179 |
| RRIRLRPPRLPRPRPRPRNDPRP | -0.142 |
| RRIRLRPPRLPRPRPRPRPAPRP | 0.454 |
| RRIRLRPPRLPRPRPRPRPKPRP | 0.294 |
| RRIRLRPPRLPRPRPRPRPPPRP | 1.58 |
| RRIRLRPPRLPRPRPRPRSPPRP | 0.803 |
| RRIRLRPPRLPRPRPRPRTQPRP | 0.0772 |
| RRIRLRPPRLPRPRPRPRVAPRP | 0.272 |
| RRIRLRPPRLPRPRPRPRWGPRP | 0.175 |
| RRIRLRPPRLPRPRPRPRYCPRP | -0.357 |
| RRIRLRPPRLPRPRPRPRYHPRP | -0.274 |
| RRIRLRPPRLPRPRPRPSAAPRP | 0.419 |
| RRIRLRPPRLPRPRPRPSAMPRP | -0.347 |
| RRIRLRPPRLPRPRPRPSAPPRP | 0.054 |
| RRIRLRPPRLPRPRPRPSASPRP | 0.0218 |
| RRIRLRPPRLPRPRPRPSCDPRP | -0.417 |
| RRIRLRPPRLPRPRPRPSDEPRP | -0.255 |
| RRIRLRPPRLPRPRPRPSDPPRP | -0.0539 |
| RRIRLRPPRLPRPRPRPSFAPRP | -0.067 |
| RRIRLRPPRLPRPRPRPSGGPRP | -0.153 |
